The assay deals with T1, MPER peptide (wild type, for epitope mapping) (HIV-1 HXB2).
T1 construct: also called wild-type MPER (WT); source: synthetic peptide
T1 chain: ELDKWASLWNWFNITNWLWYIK
Nature of the assay: SPR. The conditions noted are these: both partners purified.

B1: rmAb 460 IgG1 (antibody, V domains shown)
VH: EVQLQQSGAELVKPGASVKLSCTASGFNIKDTYMHWVKQRPEQGLEWIGRIDPANGNTKYDPKFQGKATITADTSSNTAYLQLSSLTSEDTAVYFCTRSRGYFGNYYFDYWGQGTTLTVSS
VL: QIVLTQSPAVMSASPGERVTMTCSASSSVSYMYWYQQKPRSSPKPWIYLTSNLASGVPARFSGSGSGTSYSLTISSMEAEDAATYYCQQWSSIPLTFGAGTKLELK
Turning to B1, the binding result was “binds”.

B2: rmAb 235 IgG1 (antibody, V domains shown)
VH: QVQLQQSGTDLVRPGTSVKVSCKASGYAFTTYFIEWVKQRPGQGLEWIGVINPGSGIPNYNEMFKGKATLTADKSSSTAYLHLSSLTSDDSAVYFCARAPYYYGSSYYYFDVWGAGTTVTVSS
VL: DIVMSQSPSSLAVSVGEKVTMSCKSSQSLLYSSNQKNYLAWYQQKPGQSPKLLIYWASTRDSGVPDRFTGSGSGTDFTLTISSVKAEDLAVYCCQQYYNYPFTFGAGTKLEIK
For the molecule B2, the binding result is “binds”.

The values above are taken from PMC10632514 (Nature Communications, 2023).
